Where a chain is given by its changes, count along the chain named. Numbers in names are those of the source.
B1: SEQ ID NO: 10: P450-BM3 parental backbone from the commercially available MCYP panel (MCYP-0343; Codexis) (protein)
chain: MTIKEMPQPKTFGELKNLPLLNTDKPVQALMKIADELGEIFKFEAPGCVTRYLSSQRLIKEACDESRFDKNLSQALKFARDFAGDGLATSWTHEINWKKAHNILLPSFSQQAMKGYHAMMVDIAVQLVQKWERLNADEHIEVSEDMTRLTLDTIGLCGFNYRFNSFYRDQPHPFIISMVRALDEVMNKLQRANPDDPAYDENKRQCQEDIKVMNDLVDKIIADRKARGEQSDDLLTQMLNGKDPETGEPLDDGNISYQIITFLIAGHETTSGLLSFALYFLVKNPHVLQKVAEEAARVLVDPVPSYKQVKQLKYVGMVLNEALRLWPTAPAFSLYAKEDTVLGGEYPLEKGDEVMVLIPQLHRDKTIWGDDVEEFRPERFENPSAIPQHAFKPFGNGQRACIGQQFALHEATLVLGMMLKHFDFEDHTNYELDIKETLTLKPEGFVVKAKSKKIPLGGIPSPSTEQSAKKVRKKAENAHNTPLLVLYGSNMGTAEGTARDLADIAMSKGFAPQVATLDSHAGNLPREGAVLIVTASYNGHPPDNAKQFVDWLDQASADEVKGVRYSVFGCGDKNWATTYQKVPAFIDETLAAKGAENIADRGEADASDDFEGTYEEWREHMWSDVAAYFNLDIENSEDNKSTLSLQFVDSAADMPLAKMHGAFSTNVVASKELQQPGSARSTRHLEIELPKEASYQEGDHLGVIPRNYEGIVNRVTARFGLDASQQIRLEAEEEKLAHLPLAKTVSVEELLQYVELQDPVTRTQLRAMAAKTVCPPHKVELEALLEKQAYKEQVLAKRLTMLELLEKYPACEMKFSEFIALLPSIRPRYYSISSSPRVDEKQASITVSVVSGEAWSGYGEYKGIASNYLAELQEGDTITCFISTPQSEFTLPKDPETPLIMVGPGTGVAPFRGFVQARKQLKEQGQSLGEAHLYFGCRSPHEDYLYQEELENAQSEGIITLHTAFSRMPNQPKTYVQHVMEQDGKKLIELLDQGAHFYICGDGSQMAPAVEATLMKSYADVHQVSEADARLWLQQLEEKGRYAKDVWAG
modifications: P450_BM3
B2: Variant 3: P450-BM3 variant of SEQ ID NO: 10: K32R; C48S; Y52F; I95P; L216Y; D232H; E349K; M491A; N574T; D722S (protein)
chain: B1 chain with K32R, C48S, Y52F, I95P, L216Y, D232H, E349K, M491A, N574T, D722S
modifications: P450_BM3
notes: C48S; Y52F; I95P; L216Y; D232H; E349K; M491A; N574T; D722S
B3: Variant 4: P450-BM3 variant of SEQ ID NO: 10: K32R; C48S; Y52F; I95P; Q111R; L216Y; D232H; P347T; E349K; M491A; N574T; E619D; D722S (protein)
chain: MTIKEMPQPKTFGELKNLPLLNTDKPVQALMRIADELGEIFKFEAPGSVTRFLSSQRLIKEACDESRFDKNLSQALKFARDFAGDGLATSWTHEPNWKKAHNILLPSFSQRAMKGYHAMMVDIAVQLVQKWERLNADEHIEVSEDMTRLTLDTIGLCGFNYRFNSFYRDQPHPFIISMVRALDEVMNKLQRANPDDPAYDENKRQCQEDIKVMNDYVDKIIADRKARGEQSHDLLTQMLNGKDPETGEPLDDGNISYQIITFLIAGHETTSGLLSFALYFLVKNPHVLQKVAEEAARVLVDPVPSYKQVKQLKYVGMVLNEALRLWPTAPAFSLYAKEDTVLGGEYTLKKGDEVMVLIPQLHRDKTIWGDDVEEFRPERFENPSAIPQHAFKPFGNGQRACIGQQFALHEATLVLGMMLKHFDFEDHTNYELDIKETLTLKPEGFVVKAKSKKIPLGGIPSPSTEQSAKKVRKKAENAHNTPLLVLYGSNAGTAEGTARDLADIAMSKGFAPQVATLDSHAGNLPREGAVLIVTASYNGHPPDNAKQFVDWLDQASADEVKGVRYSVFGCGDKTWATTYQKVPAFIDETLAAKGAENIADRGEADASDDFEGTYEEWRDHMWSDVAAYFNLDIENSEDNKSTLSLQFVDSAADMPLAKMHGAFSTNVVASKELQQPGSARSTRHLEIELPKEASYQEGDHLGVIPRNYEGIVNRVTARFGLSASQQIRLEAEEEKLAHLPLAKTVSVEELLQYVELQDPVTRTQLRAMAAKTVCPPHKVELEALLEKQAYKEQVLAKRLTMLELLEKYPACEMKFSEFIALLPSIRPRYYSISSSPRVDEKQASITVSVVSGEAWSGYGEYKGIASNYLAELQEGDTITCFISTPQSEFTLPKDPETPLIMVGPGTGVAPFRGFVQARKQLKEQGQSLGEAHLYFGCRSPHEDYLYQEELENAQSEGIITLHTAFSRMPNQPKTYVQHVMEQDGKKLIELLDQGAHFYICGDGSQMAPAVEATLMKSYADVHQVSEADARLWLQQLEEKGRYAKDVWAG
modifications: P450_BM3
notes: C48S; Y52F; I95P; Q111R; L216Y; D232H; P347T; E349K; M491A; N574T; E619D; D722S
B4: Variant 5: P450-BM3 variant of SEQ ID NO: 10: C48S; I95P; G115R; L216Y; S231R; D232H; M491A; N574T; T577A; E619D; D722S (protein)
chain: B3 chain with R32K, F52Y, R111Q, G115R, S231R, T347P, K349E, T577A
modifications: P450_BM3
notes: I95P; G115R; L216Y; S231R; D232H; M491A; N574T; T577A; E619D; D722S
B5: Variant 11: P450-BM3 variant of SEQ ID NO: 8: K95P; Q111R; G115R; I176V; L216Y; E349T; M491A; T577A; E619D; D722S (protein)
chain: MTIKEMPQPKTFGELKNLPLLNTDKPVQALMKIADELGEIFKFEAPGRVTRYLSSQRLIKEACDESRFDKNLSQALKFARDFAGDGLFTSWTHEPNWKKAHNILLPSFSQRAMKRYHAMMVDIAVQLVQKWERLNADEYIEVPEDMTRLTLDTIGLCGFNYRFNSFYRDQPHPFIVSMIRALDEVMNKLQRANPDDPAYDENKRQFQEDIKVMNDYVDKIIADRKASGEQSDDLLTQMLNGKDPETGEPLDDGNISYQIITFLIAGHETTSGLLSFALYFLVKNPHVLQKVAEEATRVLVDPVPSYKQVKQLKYVGMVLNEALRLWPTAPAFSLYAKEDTVLGGEYPLTKGDEVMVLIPQLHRDKTIWGDDVEEFRPERFENPSAIPQHAFKPFGNGQRACIGQQFALHEATLVLGMMLKHFDFEDHTNYELDIKETLTLKPEGFVVKAKSKKIPLGGIPSPSTEQSAKKVRKKAENAHNTPLLVLYGSNAGTAEGTARDLADIAMSKGFAPQVATLDSHAGNLPREGAVLIVTASYNGHPPDNAKQFVDWLDQASADEVKGVRYSVFGCGDKNWAATYQKVPAFIDETLAAKGAENIADRGEADASDDFEGTYEEWRDHMWSDVAAYFNLDIENSEDNKSTLSLQFVDSAADMPLAKMHGAFSTNVVASKELQQPGSARSTRHLEIELPKEASYQEGDHLGVIPRNYEGIVNRVTARFGLSASQQIRLEAEEEKLAHLPLAKTVSVEELLQYVELQDPVTRTQLRAMAAKTVCPPHKVELEALLEKQAYKEQVLAKRLTMLELLEKYPACEMKFSEFIALLPSIRPRYYSISSSPRVDEKQASITVSVVSGEAWSGYGEYKGIASNYLAELQEGDTITCFISTPQSEFTLPKDPETPLIMVGPGTGVAPFRGFVQARKQLKEQGQSLGEAHLYFGCRSPHEDYLYQEELENAQSEGIITLHTAFSRMPNQPKTYVQHVMEQDGKKLIELLDQGAHFYICGDGSQMAPAVEATLMKSYADVHQVSEADARLWLQQLEEKGRYAKDVWAG
modifications: P450_BM3
notes: Q111R; G115R; I176V; L216Y; E349T; M491A; T577A; E619D; D722S

Assay: Validation of generalist properties: oxidation of imatinib by lyophilized P450-BM3 variant, UPLC-MS
Assay type: biochemical
Conditions: [Imatinib] = 1 mM
Summary of the method: (§1)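 Lyophilized lysate of E. coli-expressed P450-BM3 variant (stock standardized to 12 μM heme) was incubated 24 h at 30 °C with 1 or 2 mM substrate, 1.0 mM NADP+, 25 mM glucose, 0.5 mg/mL glucose dehydrogenase and 5% DMSO in 100 mM potassium phosphate. Acetonitrile-quenched samples were analyzed by UPLC-MS (positive ESI).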

Molecule | % Conv.
B1 | ++ (5.01-10.00)
B2 | ++++ (15.01-20.00)
B3 | ++++ (15.01-20.00)
B4 | ++++ (15.01-20.00)
B5 | ++++ (15.01-20.00)

Same assay, conditions: [Imatinib] = 1 mM; TON = [substrate]*% conversion/[P450]

Molecule | TON
B1 | ‡‡ (1001-5000)
B2 | ‡‡‡‡ (10000-50000)
B3 | ‡‡‡‡ (10000-50000)
B4 | ‡‡‡‡ (10000-50000)
B5 | ‡‡‡‡ (10000-50000)

Same assay, conditions: [Imatinib] = 1 mM; fold improvement over parent MCYP-P1.2-B02

Molecule | FIOPC (B02)
B3 | *** (5.01-10.0)
B4 | *** (5.01-10.0)
B5 | * (0.0-3.0)

Same assay, conditions: [Imatinib] = 1 mM; fold improvement over parent MCYP-P1.2-B12

Molecule | FIOPC (B12)
B2 | *** (5.01-10.0)

Assay: Validation of generalist properties: oxidation of diclofenac by lyophilized P450-BM3 variant, UPLC-MS
Assay type: biochemical
Conditions: [Diclofenac] = 1 mM
Summary of the method: as §1

Molecule | % Conv.
B1 | ++++ (15.01-20.00)
B2 | ++++ (15.01-20.00)
B3 | ++++ (15.01-20.00)
B4 | ++++ (15.01-20.00)
B5 | ++++ (15.01-20.00)

Same assay, conditions: [Diclofenac] = 1 mM; TON = [substrate]*% conversion/[P450]

Molecule | TON
B1 | ‡‡‡‡ (10000-50000)
B2 | ‡‡‡‡ (10000-50000)
B3 | ‡‡‡‡ (10000-50000)
B4 | ‡‡‡‡ (10000-50000)
B5 | ‡‡‡ (5001-10000)

Same assay, conditions: [Diclofenac] = 1 mM; fold improvement over parent MCYP-P1.2-B02

Molecule | FIOPC (B02)
B5 | * (0.0-3.0)

Same assay, conditions: [Diclofenac] = 1 mM; fold improvement over parent MCYP-P1.2-B12

Molecule | FIOPC (B12)
B2 | * (0.0-3.0)
B3 | * (0.0-3.0)
B4 | * (0.0-3.0)

Assay: Validation of generalist properties: oxidation of gefitinib by lyophilized P450-BM3 variant, UPLC-MS
Assay type: biochemical
Conditions: [Gefitinib] = 1 mM
Summary of the method: as §1

Molecule | % Conv.
B1 | ++ (5.01-10.00)
B2 | ++++ (15.01-20.00)
B3 | ++++ (15.01-20.00)
B4 | ++++ (15.01-20.00)
B5 | + (0-5.00)

Same assay, conditions: [Gefitinib] = 1 mM; TON = [substrate]*% conversion/[P450]

Molecule | TON
B1 | ‡‡ (1001-5000)
B2 | ‡‡‡‡ (10000-50000)
B3 | ‡‡‡‡ (10000-50000)
B4 | ‡‡‡‡ (10000-50000)
B5 | ‡ (0-1000)

Same assay, conditions: [Gefitinib] = 1 mM; fold improvement over parent MCYP-P1.2-B02

Molecule | FIOPC (B02)
B5 | * (0.0-3.0)

Same assay, conditions: [Gefitinib] = 1 mM; fold improvement over parent MCYP-P1.2-B12

Molecule | FIOPC (B12)
B2 | *** (5.01-10.0)
B3 | *** (5.01-10.0)
B4 | *** (5.01-10.0)

Assay: Validation of generalist properties: oxidation of loratadine by lyophilized P450-BM3 variant, UPLC-MS
Assay type: biochemical
Conditions: [Loratadine] = 1 mM
Summary of the method: as §1

Molecule | % Conv.
B1 | ++++ (15.01-20.00)
B2 | ++++ (15.01-20.00)
B3 | ++++ (15.01-20.00)
B4 | ++++ (15.01-20.00)
B5 | +++ (10.01-15.00)

Same assay, conditions: [Loratadine] = 1 mM; TON = [substrate]*% conversion/[P450]

Molecule | TON
B1 | ‡‡‡‡ (10000-50000)
B2 | ‡‡‡‡ (10000-50000)
B3 | ‡‡‡‡ (10000-50000)
B4 | ‡‡‡‡ (10000-50000)
B5 | ‡‡‡ (5001-10000)

Same assay, conditions: [Loratadine] = 1 mM; fold improvement over parent MCYP-P1.2-B02

Molecule | FIOPC (B02)
B5 | * (0.0-3.0)

Same assay, conditions: [Loratadine] = 1 mM; fold improvement over parent MCYP-P1.2-B12

Molecule | FIOPC (B12)
B2 | * (0.0-3.0)
B3 | * (0.0-3.0)
B4 | * (0.0-3.0)

Reference: US10704030B2, “P450-BM3 variants with improved activity” (Codexis, Inc., priority 2015, dated 2020)
